Assay results from patent US10590192B2, “Midkine antibody” (Cellmid Limited, priority 2014, dated 2020).
Numbering of substitutions follows the chain as printed. “Also recorded” adds a separate entry of the source.

T1: recombinant human MK (huMK) (Homo sapiens, UniProt P21741)
T1 sequence (P21741 21-143): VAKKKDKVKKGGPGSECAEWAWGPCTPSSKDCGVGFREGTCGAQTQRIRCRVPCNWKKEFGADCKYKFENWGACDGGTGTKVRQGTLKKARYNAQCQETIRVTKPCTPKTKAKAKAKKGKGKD

T2: murine MK (muMK) (Mus musculus, UniProt P12025)
T2 sequence (P12025 23-140): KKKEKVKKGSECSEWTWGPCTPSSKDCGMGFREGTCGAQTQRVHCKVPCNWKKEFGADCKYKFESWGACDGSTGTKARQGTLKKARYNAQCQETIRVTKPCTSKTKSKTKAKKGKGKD

T3: human midkine protein (Homo sapiens, UniProt P21741)
T3 construct: human MK cDNAs comprising the MK coding region flanked by EcoRI restriction sites; made in house; host or cells: Pichia pastoris GS115 (clone T3L-50-4P), secreted into culture supernatant
T3 sequence (P21741 21-143): T1 sequence (P21741 21-143)

B1: IP14-H4L5: humanised IP14 antibody: VH SEQ ID NO: 5, VL SEQ ID NO: 14 (antibody, V domains shown)
VH: QVQLVQSGAEVKKPGASVKVSCKASGYTFTSYYMHWVRQAPGQGLEWMGIIHPSGGSTSYAQKFQGRVTMTRDTSTSTVYMELSSLRSEDTAVYYCARWSAKRGDFWGQGTLVTVSS
VL: EIVLTQSPATLSLSPGERATLSCRASQGVSSNLAWYQQKPGQAPRLLIYDASNRATGIPARFSGSGPGTDFTLTISSLEPEDFAVYYCQQSNSWPLTFGQGTKVEIKR
modifications: Variable region heavy chain humanised variant 4 (VH4); Variable region light chain humanised variant 5 (VL5)
B2: IP14-H4L6: humanised IP14 antibody: VH SEQ ID NO: 5, VL SEQ ID NO: 15 (antibody, V domains shown)
VH: B1 VH
VL: EIVLTQSPSTLSASVGDRVNITCRASESISNNLHWYQQKPHKAPKLLIYYASQSISGVPSRFSGSGSGTEFNLTISSVQPDDFATYYCQQSNSWPLTFGQGTKVEIKR
modifications: Variable region heavy chain humanised variant 4 (VH4); Variable region light chain humanised variant 6 (VL6)
B3: IP14-H4L7: humanised IP14 antibody: VH SEQ ID NO: 5, VL SEQ ID NO: 16 (antibody, V domains shown)
VH: B1 VH
VL: DIVLTQSPATLSLSPGERANLSCRASESISNNLHWYQQKPHQAPRLLIYYASQSISGVPARFSGSGSGTDFNLTISSVEPEDFAVYYCQQSNSWPLTFGQGTKVEIKR
modifications: Variable region heavy chain humanised variant 4 (VH4); Variable region light chain humanised variant 7 (VL7)
B4: IP14-H4L8: humanised IP14 antibody: VH SEQ ID NO: 5, VL SEQ ID NO: 17 (antibody, V domains shown)
VH: B1 VH
VL: B3 VL with N20T, N72T
modifications: Variable region heavy chain humanised variant 4 (VH4); Variable region light chain humanised variant 8 (VL8)
B5: IP14-H5L8: humanised IP14 antibody: VH SEQ ID NO: 6, VL SEQ ID NO: 17 (antibody, V domains shown)
VH: QVQLVQSGGGLVQPGGSLRLSCAASGQSFSSYWMNWVRQAPGQGLEWIGMIHPSDSETILNQKFKDKATLTVDISKNTAYLQMNSLRAEDTAVYYCSSWSAKRGDFWGQGTLVTVSS
VL: B3 VL with N20T, N72T
modifications: Variable region heavy chain humanised variant 5 (VH5); Variable region light chain humanised variant 8 (VL8)
B6: IP14-H6L8: humanised IP14 antibody: VH SEQ ID NO: 7, VL SEQ ID NO: 17 (antibody, V domains shown)
VH: B5 VH with Q13K, G16H, Q43K, T71S, S75A, T78S
VL: B3 VL with N20T, N72T
modifications: Variable region heavy chain humanised variant 6 (VH6); Variable region light chain humanised variant 8 (VL8)
B7: IP14-H6L3: humanised IP14 antibody: VH SEQ ID NO: 7, VL SEQ ID NO: 12 (antibody, V domains shown)
VH: B5 VH with Q13K, G16H, Q43K, T71S, S75A, T78S
VL: B3 VL with N20T, H41G, V58I, S67P, N72T, V78L, Q100G, V104L
modifications: Variable region heavy chain humanised variant 6 (VH6); Variable region light chain humanised variant 3 (VL3)

molecular target: T1, recombinant human MK (huMK); assay: ELISA binding of humanised anti-MK antibodies to huMK; details: ELISA, plates coated with 2 ug/mL huMK; read-out: Binding affinity for huMK, ELISA EC50
Procedure: (§1) The binding specificity and affinity of the humanised anti-MK antibodies to recombinant human MK (huMK) and murine MK (muMK) was assessed by ELISA. ELISA plates (Nunc Immuno MaxiSorp 96 well flat-bottom were coated with 100 uL of 2 ug/mL of either huMK or muMK in 2% BSA/PBS (overnight at room temperature). After washing, blocking (1 h at 37° C.), and washing again, the humanised anti-MK and chimeric antibodies described in Example 1 were analysed for binding to huMK or muMK at concentrations ranging between 3 μg/ml and 0.00004 μg/ml in 2% BSA/PBS (1 h at 37° C.). After washing, the binding of antibody was detected with goat anti-mouse IgG (Fab specific)-HRP conjugate (Sigma, Cat. No. A9917) and SigmaFast OPD substrate (Sigma, Cat. No. P9187). The reaction was stopped with 3 M HCl, absorbance read at 490 nm on a Dynex Technologies MRX TC II plate reader and the binding curves plotted. Binding affinity data for the humanised anti-MK antibodies to huMK and muMK are presented in Table 6 and Table 7 respectively, and in FIG. 3.
(§2) KD values for hIP14-H5L8, hIP14-H6L3 and hIP14-H6L8 was then compared with the KD values obtained for the corresponding murine IP14 precursor antibody and the chimeric antibody using the methods described in Example 2. […] Based on this finding, these candidate antibodies were produced to 100 mg scale to enable further testing in functional assays to determine biological function.

EC50	Molecule
> 10 nM	B1
> 10 nM	B2
> 10 nM	B3
> 10 nM	B4

same assay, conditions: comparison in words

binding affinity for huMK compared with murine IP14 precursor antibody	Molecule
better binding affinity	B5
better binding affinity	B6
better binding affinity	B7

molecular target: T2, murine MK (muMK); assay: ELISA binding of humanised anti-MK antibodies to muMK; details: ELISA, plates coated with 2 ug/mL muMK; read-out: Binding affinity for muMK, ELISA EC50
Procedure: as §1, §2

EC50	Molecule
> 10 nM	B1
> 10 nM	B2
> 10 nM	B3
> 10 nM	B4

same assay, conditions: comparison in words

binding affinity for muMK compared with murine IP14 precursor antibody and chimeric antibody	Molecule
better binding affinity	B5
better binding affinity	B6
better binding affinity	B7

molecular target: T3, human midkine protein; assay: UMR106 cell migration inhibition assay (modified Boyden chamber); type: cell-based, rat; details: comparison in words
Procedure: Cell migration assays were performed for each of the preferred candidate humanised IP14 antibodies and the murine IP14 parent antibody to determine the ability of these antibodies to inhibit migration of UMR106 cells to midkine.
The UMR-106 rat osteosarcoma cell line was originally obtained from the American Type Culture Collection, PO Box 1549, Manassas, Va., USA as a frozen stock (catalog no. CRL-1661; batch no. 58494148).
The cells were maintained in: DMEM+Glutamax (DMEM, catalog no. 10569-010 500 mL, lot. no. 778325, Invitrogen/Gibco) supplemented with the following items: Penicillin (10,000 U/mL stock concentration)—Streptomycin (10,000 μg/mL stock concentration) (catalog no. 15140-122 100 mL, lot no. 730849, Invitrogen/Gibco) at a rate of 1 mL/200 mL of DMEM 10% fetal bovine serum (FBS, catalog no. 100099-141, lot no. 6955347Y, Invitrogen/Gibco). The DEM+Glutamax media containing 50 U/mL penicillin, 50 μg/mL streptomycin and 10% FBS is identified as Complete media in this report. The 10% FBS was replaced by 0.3% (w/v) bovine serum albumin (BSA) for the cell migration assays. The BSA was supplied by Sigma-Aldrich, catalog no. A-3192, lot no. 31K1264 and was formulated as a 15% (w/v) stock solution in D-PBS which was sterilized by passage through a 0.22 micron filter and stored at −20° C. prior to use. The cell cultures were maintained in T75 tissue culture-treated flasks in a humidified incubator at approximately 37° C. and 5% carbon dioxide. Cells were sub-cultured twice weekly at a sub-culture ratio ranging from approximately 1:8 to 1:20. Cells were dissociated from the flask by rinsing once with Dulbecco's phosphate buffered saline (DPBS, catalog no. 14190, lot no. 783715, Invitrogen/Gibco) and then incubated with 0.25% Trypsin-EDTA solution (Invitrogen/Gibco) at 37° C. for 2-5 minutes. The cells were then removed by addition of approximately 10 mL of Complete media. The experiments were completed using UMR-106 cells at ˜50 to 75% confluency on the day prior to assay. These cultures were washed once with DMEM and cultured overnight in DMEM containing 0.5% FBS. […]

Molecule	inhibition of UMR-106 cell migration compared with murine IP14 precursor antibody
B5	more effective; also recorded: greater efficacy
B6	more effective; also recorded: greater efficacy
B7	more effective; also recorded: greater efficacy
